Measured values: patent publication US20040002457A1, “Inhibition of virus anchorage by RGG domain of a cell surface-expressed protein, polynucleotide coding for said RGG domain, therapeutic uses thereof by inhibition of microorganism or protein ligand binding to the cell-surface-expressed protein” (priority 2002, published 2004)
No end group written: not given here.

Experiments:
[1] = target: T1, cell-surface-expressed hamster nucleolin (on CHO K1, CHO 677 and CHO 618 cells) (Chinese hamster), A0A8C2; assay: biotinylated HB-19A on wild type CHO K1 cells, streptavidin-HRP
T1 chain: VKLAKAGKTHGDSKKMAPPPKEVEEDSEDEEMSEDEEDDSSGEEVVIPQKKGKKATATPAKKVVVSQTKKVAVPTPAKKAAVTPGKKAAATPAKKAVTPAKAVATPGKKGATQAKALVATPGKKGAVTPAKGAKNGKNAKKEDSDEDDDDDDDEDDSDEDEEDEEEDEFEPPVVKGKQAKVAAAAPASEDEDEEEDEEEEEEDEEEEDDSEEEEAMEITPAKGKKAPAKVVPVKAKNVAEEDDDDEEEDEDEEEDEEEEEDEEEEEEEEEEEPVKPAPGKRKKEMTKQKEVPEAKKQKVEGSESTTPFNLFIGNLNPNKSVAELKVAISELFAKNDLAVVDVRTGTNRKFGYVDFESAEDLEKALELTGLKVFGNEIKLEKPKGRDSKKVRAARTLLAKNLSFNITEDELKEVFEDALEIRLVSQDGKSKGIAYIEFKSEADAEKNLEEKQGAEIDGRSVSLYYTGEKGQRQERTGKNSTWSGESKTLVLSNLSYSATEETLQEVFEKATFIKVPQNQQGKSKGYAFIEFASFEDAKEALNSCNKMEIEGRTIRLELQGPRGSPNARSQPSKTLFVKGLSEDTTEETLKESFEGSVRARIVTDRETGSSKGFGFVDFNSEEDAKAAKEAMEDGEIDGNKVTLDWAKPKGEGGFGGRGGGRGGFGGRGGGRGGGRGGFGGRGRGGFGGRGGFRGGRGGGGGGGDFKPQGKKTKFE

[2] = target: cell-surface-expressed human nucleolin (on HeLa P4 and MT4 cells) (human), P19338; assay: 125I-labeled HB-19A on HeLa P4 cell monolayers, wash at 300 mM NaCl
[3] = target: GST-R1234G, GST fusion of the C-terminal part of human nucleolin (RBDs I-IV and RGG domain) (human) (UniProt P19338); assay: dose series 0-10 µM biotinylated HB-19A, avidin-agarose pull-down, anti-GST immunoblot
[4] = target: GST-R234G, GST fusion of human nucleolin RBDs II, III, IV and the RGG domain (human) (UniProt P19338); assay: as above
[5] = target: GST-G, GST fusion of the RGG domain of human nucleolin alone (human), P19338; assay: as above
Chain of GST-G, GST fusion of the RGG domain of human nucleolin alone (human), P19338 (P19338 648-710): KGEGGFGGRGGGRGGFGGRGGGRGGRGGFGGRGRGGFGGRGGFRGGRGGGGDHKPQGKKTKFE

Chain of GST-R234G, GST fusion of human nucleolin RBDs II, III, IV and the RGG domain (human) (P19338 389-710, stated change not applied): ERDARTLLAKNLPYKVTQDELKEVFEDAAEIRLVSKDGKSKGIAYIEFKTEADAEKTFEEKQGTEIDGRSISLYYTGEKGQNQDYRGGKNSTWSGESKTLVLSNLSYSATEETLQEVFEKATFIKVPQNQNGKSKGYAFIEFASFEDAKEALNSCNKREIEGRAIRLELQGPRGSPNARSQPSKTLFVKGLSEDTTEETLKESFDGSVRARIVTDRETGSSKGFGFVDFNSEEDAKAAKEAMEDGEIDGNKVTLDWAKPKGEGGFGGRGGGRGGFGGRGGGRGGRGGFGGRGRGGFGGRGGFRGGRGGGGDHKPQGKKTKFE
Chain of GST-R1234G, GST fusion of the C-terminal part of human nucleolin (RBDs I-IV and RGG domain) (human) (P19338 308-707, stated change not applied): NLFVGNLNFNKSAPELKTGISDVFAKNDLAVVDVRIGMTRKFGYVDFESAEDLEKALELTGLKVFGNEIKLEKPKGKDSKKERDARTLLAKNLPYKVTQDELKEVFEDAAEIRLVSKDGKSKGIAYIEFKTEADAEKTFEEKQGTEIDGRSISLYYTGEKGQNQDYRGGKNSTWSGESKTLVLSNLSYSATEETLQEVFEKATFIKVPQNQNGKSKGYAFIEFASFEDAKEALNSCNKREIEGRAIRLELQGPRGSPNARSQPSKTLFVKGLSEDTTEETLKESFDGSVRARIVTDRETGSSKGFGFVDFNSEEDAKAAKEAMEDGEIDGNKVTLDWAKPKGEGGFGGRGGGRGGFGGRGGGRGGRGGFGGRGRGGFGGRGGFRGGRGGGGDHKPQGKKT
Chain of cell-surface-expressed human nucleolin (on HeLa P4 and MT4 cells) (human), P19338 (P19338 2-710): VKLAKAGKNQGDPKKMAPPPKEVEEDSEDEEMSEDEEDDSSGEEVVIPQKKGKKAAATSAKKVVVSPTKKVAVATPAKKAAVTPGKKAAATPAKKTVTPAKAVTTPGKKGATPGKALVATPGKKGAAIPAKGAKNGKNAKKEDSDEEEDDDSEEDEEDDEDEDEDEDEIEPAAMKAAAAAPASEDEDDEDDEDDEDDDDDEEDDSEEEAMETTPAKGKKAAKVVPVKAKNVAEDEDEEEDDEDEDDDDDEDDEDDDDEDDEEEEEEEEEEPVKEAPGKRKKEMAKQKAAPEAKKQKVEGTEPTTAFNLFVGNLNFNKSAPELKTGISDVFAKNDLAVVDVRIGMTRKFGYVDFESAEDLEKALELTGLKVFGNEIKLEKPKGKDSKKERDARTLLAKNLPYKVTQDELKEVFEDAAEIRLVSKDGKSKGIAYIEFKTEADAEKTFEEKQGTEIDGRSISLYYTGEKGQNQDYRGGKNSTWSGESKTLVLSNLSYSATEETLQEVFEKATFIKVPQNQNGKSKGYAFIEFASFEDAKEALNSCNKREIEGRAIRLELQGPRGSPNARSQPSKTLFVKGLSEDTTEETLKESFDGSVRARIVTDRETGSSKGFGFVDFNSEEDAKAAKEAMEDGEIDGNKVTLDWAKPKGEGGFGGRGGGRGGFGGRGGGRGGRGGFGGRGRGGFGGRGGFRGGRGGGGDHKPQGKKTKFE

B1: HB-19A, pseudopeptide 5[K-Psi(CH2N)-PR]-TASP with a modified TASP template (peptide)
peptide: Lys-Pro-Arg
chain: KKKKA
modifications: also: reduced amide bond Psi(CH2N) between Lys and Pro in each KPR, five KPR copies on the KKKKA template: alpha-NH2 of the four template Lys and epsilon-NH2 of the N-terminal Lys, template Lys linked through their epsilon-NH2 groups
HB-19A concentration at saturation of binding [1]: 1 µM
HB-19A concentration at saturation of specific binding [2]: 1 µM
HB-19A concentration at maximum binding [3]: 5 µM
HB-19A concentration at maximum binding [4]: 5 µM
HB-19A concentration at maximum binding [5]: 5 µM
